This series in a line: label from the status in PepcDB records.
“MSVDIVHLADSELGKIVALLATSITIVPLFKRLGLGSVLGYLVAGCLIGPSVLGLFQNPQSIVHMAELGVVMFLFIIGLEMHPELLWSMRKAIFGRGFLQVLTCGTLLTFAGIHLIGLTTAVAFVVGAGFTLSSTAIVMQVLEDKGISSAPKGQRIVSTLLFEDLAIVPLLASMTFLAPSTEGATTGINSAAISIAVIGIIILVASSKWIMNPLFRMISKAKVREMMTAAALLVVLGAALLMELSGLSMAMGAFVAGVMLSESSFRHQLEADIEPFRGLLLGLFFMGVGMSLDLKFVFDDLFLLLSLVVILVLGKAISVYVIGLLTLLSHREALMRMSIMSHGGEFAFVLFSAAAAVGILDEDQQATFTAAVIISMLLSPLVVLMVQRIMTRKAKPEAPSMAGIEVAEDLENSVIVIGFGRFSQIVCQILLARGITVTVIDANTDRIRAAARFGFKVYYGDGTRLDVLRASGLAKADCVVLGINDPTRSASIVEQIKHEFPLMPIFARTYDRYSAIQLTKLHVDFQIRETFESALVLSKATMMKLGIDEVEALEVIESVRVLDKERFKEELIYGTSAELIRKYFTPKPLVKPQQPAEALNEYAAEILAETDESQHCQDNLNKKADV”: the protein production result is “failed”.
For “MSVEPTSVDPSPDKSAPANASGRADASARPSTGESARPSGGETPEVLRPHAEVTFAAELAALAAQDDRPRPVRWRLSPWAVATYLLGGTLPDGTVITPKYVGPRRIVEVAVTTLATDRALLLLGVPGTAKTWVSEHLAAAVSGDSTLLVQGTAGTPEEAIRYGWNYAQLLAHGPSRDALVPSPVMRAMADGMTARVEELTRVPADVQDTLITILSEKTLPIPELGQEVQAVRGFNLIATANDRDRGVNELSSALRRRFNTVVLPLPESADAEVDIVSRRVDQIGRSLDLPAVPDGVDEIRRVVTVFRELRDGVTTDGRTKLKSPSGTLSTAEAISVVTNGLALAAHFGDGVLRASDVAAGILGAVVRDPAADRVIWQEYLEAVVRERDGWMDFYRACREVSALEHHHHHH”, the protein production result is “not failed”.
As for “MSVFMDLNIINSSDKNRLKHIIETAAHLGYSTVAINYVVEPLQKKQEIPNPQSISDLFDKFPVVQGKSSPIKVLNRLTIVASDASHFRPTNEYKKFDLVAVYPKTEKLFHAACMTFDVDIICIAVTEKQPFHFKRAPVNGAIDRGIFFETCYAAAIRDSITRRYTIANAICLMEICKGKNVIVSSGAERQLELRGPYDIANLGLVFSLSEGDAKAAVSTNCRSVLLHGETRATASGVIHTMKKPQILQKEEEETPAAKKARTELA”, the entry is “failed”.
“MSVHHAERFLPFSDLQMFTLVADVERYPQFVPWWIAARVIDSRPAPAGDGPDAKIYRTDQVIGMGPVRLRFTSRTLLVSPRRISVASQGGGPVRDLSLDWWFDAQPGGCLTRLDMTLDLGSRSLENLLAGMSSEAAVKLVDAFERRAHALYQGG”: the protein production entry is reported as “failed”.
Turning to “MSVIKLKSKLKYCHYAYDDEGYVIHMLTSNERTFFTNAYIIETKNSIVVVDTLMVNSDAILLRQYMDNINKPLIAVIITHGHPDHYNGTEIITGFKEVPIISTKGIRDCIQDTVDSKEVKWKPYFGQDWPEHKILPNQLVIDSEVVNLDGLDYSFRDLGAAESSSDLFFTLGEKRSVIFVGDVVFNNMHGFMNDGNSAQWLKVLQKLLTEIADVKLLFTGHGDPGDTHQLVQRQIDYISHYRSNLLAIIRGNQLLNDTQKQSFEQLMMANYPEFQLSSFIKAGIDAVSQELIVEQNDKP”, the protein production entry is “failed”.
Under “MSVKSVLVFLSVSGSTMPMLILESDSIAEVKLRIQTCNGFRVRRQKLVFSGRELARNASRVKDYGVTGGSVLHLVLKLYDP” stands “failed”; under “MSVLSIVTVPDKRLSLCSEEVEKVDQSIRKLVDDMFETMHANQGLGLAAVQVGVHKRILVMNVPEEFEDSEDIENVEDKIEGYELYGGPYCIINPKIVDISQEKVKLKEGCLSVPGYFDYIVRPQRIAVQYLDYNGNECIIKAQGWLARCLQHEIDHLNGTVFLKYLSKFKRDFAIEKVKKKERTDLI”, “not failed”.
Under “MSVPQGARDVEAIRAIGPDQWQTVPAGQTLNRGFSDDEFWLQVRVPAQPANRVLEVGYPLLDEVSVYWELDGRIIESHHTGDTRPFDSRPIVHRNFVFLVPSNTEPVTAWIRVQTQGSVQVPVAVTPSAEFLANEQISYGWQTMFLGIVVALALYNLFLFLIVRHQTYLWYVLTVVCSGAVQLNFNGLLFQWFWPDVPWINRYFTVPVVSAALIAAIVFTMKFLLVKSYSRWGYRILQALLAVNLLGLIYGFLGSYQVGIIWISSLAAFATPVAWLIGINVWRRGQILGGFYVLAWTPLLLGHLVLAVSKLGWIPRSPFTELAPQAGVAVEVILLSFALAYRINMERRRRQQAQEHALDIQRQANLTLESRVRERTEELEQANEQLRAISLTDGLTHVANRRRFDEKLETEWNRALRHEHELSLILLDIDHFKQVNDRFGHLVGDDCLVALASILSDEVQRSGDLVARYGGEEFAILLPTTDVAGAQQVAERMRLSVARTPVNSGEHMSPVSLTISLGVATLTPNRQSDCQELIRRADEALYAAKSDGRNRVVVWHPKAVAPTTG” stands “failed”; under “MSVQLSEGQTFGPRAINVTRTTLVRYAGASGDFNPIHYSDRAAREAGMDGVIAHGMWTMGAALGTVIDWVGGPERVVSQRARFTRPVQVPDTEGGTAIEVAATVRKVSEEAATLAVDVKCDGQSVLGRVEVVVRQGEQ”, “failed”.
Under “MSVQNIVNINESNLQQTLEQSMTTPVLFYFWSERSQHCLQLTPVLESLAAQYHGQFILAKLDCDAEQMIAAQFGLRAIPTVYLFQNGQPVDGFQGPQPEEAIRALLDKVLPREEELKAQQAMQLMQEGNYIDALPLLKDAWQLSSQNSEIGLLLAEAQIALNRSEEAEAVLKTIPLQDQDTRYQGLVAQIELLKQAADTPEIQQLQQQVADNPQDAALATQLALQLHQVGRNEEALELLFSHLRKDLTAAEGQTRKTFQEILAALGTGDALASKYRRQLYALLY” stands “not failed”.
For the sequence “MSVQTPDFSQQQQFLELTQQTIQNQQFDRLVLSQYKGTEPELEKVTFRMVELQQQFKLSALYHYTTKDVTKNYDLNDAIGVIETLIANCKQANLFGSVIEAQLKKNKKKAMLNVQQLSAEKYNNNVGQQHNREKQRYIDTMAPFLQYLGITEPNGNIIPAMARKWKQINKFIEIFSHAYEQIELKDDSIKIVDFGSGKGYLTFALYDYLQQQTRTAPQMTGVELRSNLVEFCEDVAKKAGFDHLDFFEGDVRTYAPEHLDVMIALHACDVATDFAIHTGIRLNASMIMCAPCCHKELRPQLQSPKVLKPMLQFGIHAGQQAEMLTDTLRALLLKAYGYDVKVFEFVSLEHTSKNKMILATKRQTIQQPDPQILEQIQALKQMYGIQKQTLELLLQDQITIDNVGCKC”, the protein production result is listed as “failed”.
Under “MSVSPSPFNGAEHPIKGIALICLAVLLFASHDTLSKYLSAFYPIVMVVWARYVVHTLLMLVVFVPRSGFSAVVRTKRPGLQLLRALCLIGTSLLFTTGLRYIPLAEATAVNFLAPLLVTALSVPFLGERVSRAQWLAVLAGFVGVLIVVRPGGALFTPAILLPLGSALCFGFYQLLTRKLSGVDSPTTSNFLTGILNSLIMSALLPFFWSTPTLVHGLFMIGLGTCGMLGHMLLTQAFRHAAPAMLAPFSYGQILFAGLFGYLIFDHTPDQYALVGIAVICLSGLAVAWAQRKR” stands “failed”; under “MSVTSRYRDAWEGFWNEASGDRGAVFWDAEPTLTAGRHLAHFEPHLTDAALPLIDLGCGNGTQTRYFAERFPHVVGADLSAAALAHARHADPGGLAAYRQLDAADKAEAQALHAELGDANVYVRGVLHQCEPDDRQPLADALAALLGERGRAFLVEPSQAAKTVLMGLAQGPAGPPAKLAPVLRHGLTPGAVPDEAVPEYLRAAGLTVLASGELPLVTTEYTADGTRIELPSAWVVAGTA”, “failed”; under “MSVVDPSLIERIIRDDVRAMGAYHVPDSHGLVKLDAMENPYRLPPALRSELAARLGEVALNRYPVPSSEALRAKLKEVMQVPAGMEVLLGNGSDEIISMLALAAARPGAKVMAPVPGFVMYAMSAQFAGLEFVGVPLRADFTLDRGAMLAAMAEHQPAIVYLAYPNNPTGNLFDAADMEAIVRAAQGSVCRSLVVVDEAYQPFAQESWMSRLTDFGNLLVMRTVSKLGLAGIRLGYVAGDPQWLEQLDKVRPPYNVNVLTEATALFALEHVAVLDEQAAQLRAERSRVAEGMAAHGGVTVFPSAANFLLARVPDAAQTFDRLLARKVLIKNVSKMHPLLANCLRVTVSTPEENAQFLEAFAASLQD”, “not failed”.

Values taken from a protein production outcome set (Wang et al. 2014).
